B1: P3(2x) (dsDNA)
DNA 1: AAGGGAGACAACTTGTCTCCCAAAGGGAGACAACTTGTCTCCCAAAGGGAGACAACTTGTCTCCCA
DNA 2: TGGGAGACAAGTTGTCTCCCTTTGGGAGACAAGTTGTCTCCCTTTGGGAGACAAGTTGTCTCCCTT

Assays:
[1] = biological target: T1, ARFTF17 (Zea mays (B73?)) (UniProt D9HNU4); experiment: EMSA; conditions: 20 mM Tris-HCl pH 7.9, 40 mM KCl, 2 mM MgCl2, 0.2 mM DTT, 5% glycerol, 0.04 mg/mL BSA, 1 ug salmon sperm DNA in 20 uL, room temperature 30 min; 0.05 pmol …
T1 sequence: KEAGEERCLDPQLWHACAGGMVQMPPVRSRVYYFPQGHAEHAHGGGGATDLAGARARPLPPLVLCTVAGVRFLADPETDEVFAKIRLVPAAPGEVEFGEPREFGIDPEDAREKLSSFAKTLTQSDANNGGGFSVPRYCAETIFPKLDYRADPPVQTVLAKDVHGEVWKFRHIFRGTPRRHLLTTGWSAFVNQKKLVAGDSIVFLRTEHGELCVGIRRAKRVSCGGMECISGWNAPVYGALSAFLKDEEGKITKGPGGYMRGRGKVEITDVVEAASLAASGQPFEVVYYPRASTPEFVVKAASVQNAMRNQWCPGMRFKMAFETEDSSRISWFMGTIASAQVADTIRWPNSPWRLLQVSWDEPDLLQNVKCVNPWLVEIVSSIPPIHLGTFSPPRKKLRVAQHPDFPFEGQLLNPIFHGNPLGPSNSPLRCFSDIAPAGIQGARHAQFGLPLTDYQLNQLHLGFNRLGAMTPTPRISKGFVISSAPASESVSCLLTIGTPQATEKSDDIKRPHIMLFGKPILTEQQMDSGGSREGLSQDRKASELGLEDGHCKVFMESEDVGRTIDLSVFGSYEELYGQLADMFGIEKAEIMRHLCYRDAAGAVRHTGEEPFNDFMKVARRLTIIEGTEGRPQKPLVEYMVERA

ARFTF17 = biological target: T2, ARFTF17 (Zea mays, UniProt D9HNU4 2-644); experiment: EMSA; 20 mM Tris-HCl pH 7.9, 40 mM KCl, 2 mM MgCl2, 0.2 mM DTT, 5% glycerol, 0.04 mg/mL BSA, 1 ug salmon sperm DNA in 20 uL, room temperature 30 min; 0.05 pmol probe, 100 ng protein; native 4% PAGE at 4 C; conditions: protein: recombinant; tags: His (pET30a); chain copies: 2; blunt
T2 sequence: T1 sequence

Molecule | binding [1] | binding result (ARFTF17)
AATGCACAATCAAATAAATACTCAACATGATGCATATTTCTATTTATATATTTTTATAGTAATTGTTTAATCCTTTTGGTTAAATAACATGCTTCGAAATATGCCATACAACAATTTTCAGTTTTGAAGAAAT (double strand) [PIN1-P] | no binding | 
B1 |  | no binding

Source: article PMC10960022, “An ARF gene mutation creates flint kernel architecture in dent maize”
